Data reported in the RNAGym collection of RNA variant scans (doi:10.1073/pnas.2313332121).

B1: TPR t1 (parent)
chain: GACCAAUCUGCCCUCAGAGCUCGAGAACAUCUUCGGAUGCAGAGGAGGCAGGCUUCGGUGGCGCGAUAGCGCCAACGUCCUCAACCUCCAAUGCAUCCCACCACAUGAUGAUGCCUGAAGAGCCUUGGUUUUUUG

Variants of: B1
Assay: polymerase ribozyme fitness, log enrichment relative to wild type (log ratio); higher = more active; in vitro selection for triplet polymerase activity
Method in brief: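 Input and output libraries were sequenced on Illumina after a single in vitro selection round, run in triplicate on PCR-built, transcribed mutant libraries of each subunit of a heterodimeric triplet polymerase ribozyme. Selection annealed libraries to a biotinylated primer, the partner subunit and triplets, incubated them frozen at −7 °C, then gel-excised extended constructs for streptavidin-bead capture and RT-PCR. Genotypes with ≥10 input reads and ≥1 read per output were kept. Fitness is the logarithm, taken in base 2, of genotype enrichment divided by wild-type enrichment, using inverse-variance-weighted replicate averages.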

| Variant | polymerase ribozyme fitness (log ratio) |
| --- | --- |
| C12G A46U C102A | -2.85 |
| C12U G52A G117C | -0.882 |
| C12G C15U G48A G61A U81G C123U | -2.3 |
| C12U A46C C53G C72U C73G A84C A95C | -5.01 |
| C12U A26G C56U G69U G117A U125G | -4.97 |
| C12G U14A A26U C72U A90G C123A | -2.58 |
| C12G G117C U126G | -3.28 |
| C12G G42C C70A U78A A91U | -5.9 |
| C12G G58A G61A C62U C124G | 0.824 |
| C12U G61A U106A C114A | -0.698 |
| C12G C70U U106A | 0.277 |
| C12U U14A G110U G113A U130C | -4.17 |
| C12G G48C G135U | -1.51 |
| C13A A74G C86A C101G | -4.34 |
| C12G C64A U133A | -5.1 |
| C13A A41U G45C C82A | -4.65 |
| C12G G17A C62U C101U | -5.49 |
| C12G C28U C72U C123U U125G | -0.502 |
| C12U U33G G69U C99A C115A U125C | -6.8 |
| C12U C80U C89U C99U G120A | -2.97 |
| C13A C28G C34A G69A A84C G110C | -4.89 |
| C12G G60A C115G | -4.95 |
| C12U A46C A75U | -0.187 |
| C12A U92A | -3.47 |

| Variant | polymerase ribozyme fitness (log ratio) |
| --- | --- |
| C12G C79A | -1.01 |
| C13A C49U G51U G69U A111U G120A | -6.99 |
| C12G C76U | -0.0382 |
| C12G G113U | -3.38 |
| C12U A16G U106A | 0.278 |
| C12U C20U A91U U116G | -4.44 |
| C12U C86A | 0.101 |
| C12U C40U | -0.543 |
| C12G A43U | -0.979 |
| C12U C28A C40U C73U | -4.89 |
| C12G G110U U130A | -1.34 |
| C12G C124G | 0.742 |
| C13A G36A G52U C97U A111C | -2.68 |
| C12U C79G | -1.07 |
| C12U C79A | -0.645 |
| C13A C73G | -3.11 |
| C12U C15G G39A C56A G120A | 0.312 |
| C12U A83U | 0.364 |
| C12U A46U G51U G60A | -3.42 |
| C12U A18U A108U C114U A121C U129C | -6.88 |
| C12G A41U G44C C64U C82G G113U | -5.32 |
| C12A U87A C89G C94A G113A | -6.04 |
| C12G A26C A27C G36U C97A C101U U109A | -7.51 |
| C12U U129A | -0.808 |

| Variant | polymerase ribozyme fitness (log ratio) |
| --- | --- |
| C12U G69C | -0.628 |
| C13A G19U C82A U87G G120A | -3.21 |
| C12U G17U | -0.854 |
| C12U G61C C94U | -0.805 |
| C12G A27C C104U G113U G120A G122A U130A | -6.9 |
| C12U U106A | 0.462 |
| C12G C15U G61A | -0.982 |
| C12U C28U C49U C82A | -3.01 |
| C12U U38G C62U C76U C79A | -1.79 |
| C13A C40U | -1.37 |
| C12U C72U A100C G113U G127A | -3.91 |
| C12U C56A | -0.454 |
| C12U C56G | -0.12 |
| C12G C70G C85A | -3.7 |
| C12U G42C C72U | -1.28 |
| C12G A41C | -0.0245 |
| C12U C123A | 2.11 |
| C12G U33G C76A A100C C123G | -5.88 |
| C12U G42C C53A G71U C88G G128A G135U | -6.24 |
| C12U C13U C70U G71C U96A U112G U131C | -4 |
| C12U G117A | 0.626 |
| C12G C56U A100C G117U | -3.6 |
| C12G G45U C72A G127A | -2.17 |
| C13A C88G A105G G120U | -4.2 |

| Variant | polymerase ribozyme fitness (log ratio) |
| --- | --- |
| C12G G69C C72U A90U U116G | -6.29 |
| C12U C72G U112C | 1.25 |
| C12G A46C C53A C104A C123U | -1.14 |
| C12U G63A G113A | -1.59 |
| C12U A50U U59G A119U | -0.98 |
| C12U A29U C56G U87G | -2.63 |
| C12A G122A | -0.788 |
| C12G G93U U112A | 0.281 |
| C12A G71U | -0.821 |
| C12U A46U A121C | -0.0492 |
| C12U G44U | -0.985 |
| C12G G69U C115A | 0.211 |
| C12U A46G C56A A105U | -1.73 |
| C12G A27C | -2.38 |
| C12G A43U U92G C104A G117U A118U | -5.1 |
| C12U G51C C79U | -2.71 |
| C12U C20A A75C C114A G117U | -5.53 |
| C12U G48C C72G U131G | -1.72 |
| C13A C73G G120A C123A | -1.91 |
| C12A U133A | -0.907 |
| C12G C53U G93C | -0.482 |
| C12A G69A A100C A121C | -3.75 |
| C12U C62G U126A | -2.76 |
| C12U C15A A37C G52U U116G | -3.09 |

| Variant | polymerase ribozyme fitness (log ratio) |
| --- | --- |
| C12A U14G G17A C20A C94A | -3.13 |
| C12U G42U C73A U112A G135C | -0.178 |
| C12A G69C | -2.39 |
| C12U U59G | 0.247 |
| C12U A68G | -1.94 |
| C12U C62G | -1.57 |
| C12U U14A | -2.23 |
| C12G G120A | 1.87 |
| C12U G19A C56G U130C | -2.66 |
| C12U C15A U125G U133A | -1.18 |
| C12G C40U | -1.51 |
| C12U C34G C115G | -6.11 |
| C13A C49A G71A | -1.76 |
| C12U G110U | -0.322 |
| C12U C53A G58C A119U | -0.505 |
| C12U G69U U78G A100U | -0.359 |
| C12G G39U G61A U106C G127C | -2.63 |
| C12U G47A G113U | -3.45 |
| C13A C40U C88U C101A U112A | -2.49 |
| C12G G36C G58A | -1.29 |
| C12U U30G G63U G113C G117C | -7.89 |
| C12U G63C C82U A103C | -6.59 |
| C12U G52A U112A G120A | 1.03 |
| C12G C40G G45A C56U | -1.34 |

| Variant | polymerase ribozyme fitness (log ratio) |
| --- | --- |
| C12U C72G G117C A119U | -1 |
| C12G A26U G77A | -2.58 |
| C12U G47U A83C | -2.09 |
| C12U C72U U96A C115U | -1.92 |
| C12U U32C G69U C76G G77U C80U A84G | -4.98 |
| C12U A46U G51U G69U A74U | -3.04 |
| C12G C86G C89G C104U | -1.35 |
| C12G G36C A66U C85U C86A | -3.38 |
| C12U G45C C102A | -2.34 |
| C12U U116G | -0.0621 |
| C12G C104U G128C U133A | -0.738 |
| C12U C13U A18U C20G | -4.78 |
| C12U C102A C124U | 0.00391 |
| C12G A75U C94G | -1.33 |
| C12U A83C G93A | -0.192 |
| C13A C101U | -2.13 |
| C12G C15G G47C C82G | -4.81 |
| C12A U112C | 0.835 |
| C12U G61U | 0.129 |
| C12G U96A | -0.352 |
| C12U C15U A46C G47A G69C A100G C101U G113U C123G | -7.1 |
| C13A A121C G128C | -1.87 |
| C12G A37C G60C A83U A91C G120U | -0.68 |
| C12A G127U | -1.39 |

| Variant | polymerase ribozyme fitness (log ratio) |
| --- | --- |
| C12U A29G U92C C94A | -3.95 |
| C12G U14C C62U C85U C86U | -1.07 |
| C12U U33G U131A | -4.55 |
| C12U C56A U92G C101G A121G | -3.35 |
| C12G A74U C80U | -1.1 |
| C12U C13U A43G G61A U130G | -2.17 |
| C13A A90U | -3.48 |
| C12U G47C C97G G120C | -3.35 |
| C12U C98G | -4.85 |
| C12U C98U | -0.736 |
| C13A C49U U87G C123A U131G | -0.403 |
| C12U U55G U59C U133A | -0.128 |
| C12G G51A | -2.1 |
| C12U G60U G69A C86U C101A U112C | -6.42 |
| C12U G42A A95U | -1.64 |
| C13A C88U | -2.04 |
| C12U C15U C49A C101U U133G | -1.18 |
| C12G G61A G128U | -1.84 |
| C12U A18U C40U U106C C114G | -2.23 |
| C13A G36C | -1.87 |
| C12U A16U C22G U38G G52C A111U | -3.72 |
| C12A G128U | -2.12 |
| C12A G128C | -2.18 |
